2 molecules from patent publication US20050287608A1 (UNIVERSITY OF MEDICINE AND DENTISTRY, published 2005) can be followed below.

The target in this assay is Ub-Pro-βgal (proteolytic test substrate, ubiquitinated in yeast cells) (UniProt P00722 1-1024 = β-galactosidase, ubiquitinated in the cells (multi-Ub chains; sites not stated)). The experiment in a line: cell-based or functional assay.

Changes are numbered by the printed parent chain. Some results are limits rather than exact numbers.

Chain of Ub-Pro-βgal (proteolytic test substrate, ubiquitinated in yeast cells) (P00722 whole entry): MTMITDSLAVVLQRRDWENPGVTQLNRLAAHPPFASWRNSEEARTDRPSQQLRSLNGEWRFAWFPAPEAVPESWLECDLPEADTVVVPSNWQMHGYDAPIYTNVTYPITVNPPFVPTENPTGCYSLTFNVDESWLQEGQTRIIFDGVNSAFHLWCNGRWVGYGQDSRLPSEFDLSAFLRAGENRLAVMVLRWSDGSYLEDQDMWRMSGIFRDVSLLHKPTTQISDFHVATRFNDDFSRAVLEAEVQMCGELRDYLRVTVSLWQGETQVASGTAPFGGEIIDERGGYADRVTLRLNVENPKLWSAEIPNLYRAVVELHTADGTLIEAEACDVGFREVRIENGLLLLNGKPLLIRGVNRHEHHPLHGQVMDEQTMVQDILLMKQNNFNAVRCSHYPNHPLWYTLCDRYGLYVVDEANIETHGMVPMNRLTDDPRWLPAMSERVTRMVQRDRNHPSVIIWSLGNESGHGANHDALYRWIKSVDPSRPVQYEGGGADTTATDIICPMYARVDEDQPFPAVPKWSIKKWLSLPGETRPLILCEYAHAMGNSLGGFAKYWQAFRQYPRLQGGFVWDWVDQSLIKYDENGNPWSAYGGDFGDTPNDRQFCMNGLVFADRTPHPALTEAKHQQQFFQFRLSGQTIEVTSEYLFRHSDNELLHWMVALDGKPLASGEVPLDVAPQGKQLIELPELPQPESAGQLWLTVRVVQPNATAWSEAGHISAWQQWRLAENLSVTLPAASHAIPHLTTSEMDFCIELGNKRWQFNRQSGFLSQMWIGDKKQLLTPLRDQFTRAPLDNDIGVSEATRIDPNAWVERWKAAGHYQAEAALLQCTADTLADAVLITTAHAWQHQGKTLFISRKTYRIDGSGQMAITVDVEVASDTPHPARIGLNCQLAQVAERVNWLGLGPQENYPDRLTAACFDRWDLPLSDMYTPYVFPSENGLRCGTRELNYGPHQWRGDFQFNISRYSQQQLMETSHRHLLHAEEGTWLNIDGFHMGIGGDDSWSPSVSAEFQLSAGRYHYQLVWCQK

B1: Flag-Rad23 (yeast Rad23 with an amino-terminal Flag epitope) (other, yeast (Saccharomyces cerevisiae), UniProt P32628 1-398, looked up, not shown: small tags and cut ends)
chain: MVSLTFKNFKKEKVPLDLEPSNTILETKTKLAQSISCEESQIKLIYSGKVLQDSKTVSECGLKDGDQVVFMVSQKKSTKTKVTEPPIAPESATTPGRENSTEASPSTDASAAPAATAPEGSQPQEEQTATTERTESASTPGFVVGTERNETIERIMEMGYQREEVERALRAAFNNPDRAVEYLLMGIPENLRQPEPQQQTAAAAEQPSTAATTAEQPAEDDLFAQAAQGGNASSGALGTTGGATDAAQGGPPGSIGLTVEDLLSLRQVVSGNPEALAPLLENISARYPQLREHIMANPEVFVSMLLEAVGDNMQDVMEGADDMVEGEDIEVTGEAAAAGLGQGEGEGSFQVDYTPEDDQAISRLCELGFERDLVIQVYFACDKNEEAAANILFSDHAD
With B1, the “t1/2 of Ub-Pro-βgal by pulse-chase on overexpression of Flag-Rad23 in yeast” value is more than 100 min.

B2: Flag-rad23^uba1uba2 (yeast Rad23 with mutations in both UBA domains, amino-terminal Flag epitope) (other, yeast (Saccharomyces cerevisiae), UniProt P32628 1-398, looked up, not shown: small tags and cut ends)
chain: B1 chain with L183A, L392A
As to B2, the “t1/2 of Ub-Pro-βgal by pulse-chase on expression of Flag-rad23^uba1uba2 in yeast” value was approximately 10 min.
